Paper PMC7718258, “A substrate binding model for the KEOPS tRNA modifying complex”

Legend:
mjCgi121;mjBud32 = molecular target: T1, mjCgi121;mjBud32 (Methanocaldococcus …, UniProt Q57646;Q58530 1-145;333-535, |); assay: fluorescence polarization; 20 mM HEPES pH 7.5, 100 mM NaCl, 2 mM DTT; filter binding 50 nM 32P-tRNA, 1 h, room temperature; FP 50 nM 647-CCA; NMR 25 C with 10% D2O; conditions: protein: recombinant;recombinant; tags: GST removed by TEV;His6 removed by TEV; copies: 1;1; label: 5' Alexa-647; single strand
T1 sequence 1: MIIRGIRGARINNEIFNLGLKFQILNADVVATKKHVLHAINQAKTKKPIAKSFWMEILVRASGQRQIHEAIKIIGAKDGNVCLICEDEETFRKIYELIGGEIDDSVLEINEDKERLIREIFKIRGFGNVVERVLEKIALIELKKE
T1 sequence 2: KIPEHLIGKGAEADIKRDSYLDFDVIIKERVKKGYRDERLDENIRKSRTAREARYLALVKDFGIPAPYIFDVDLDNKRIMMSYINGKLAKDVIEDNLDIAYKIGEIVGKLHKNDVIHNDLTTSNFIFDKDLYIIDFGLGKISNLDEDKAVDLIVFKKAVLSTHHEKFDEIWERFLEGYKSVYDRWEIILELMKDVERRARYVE

mjBud32 = molecular target: T2, mjBud32 (Methanocaldococcus jannaschii, UniProt Q58530 333-535); assay: as above; conditions: protein: recombinant; tags: His6 removed by TEV; label: 5' Alexa-647; single strand
T2 sequence: T1 sequence 2

mjKae1 = molecular target: T3, mjKae1 (Methanocaldococcus jannaschii, UniProt Q58530 1-332); assay: as above; conditions: protein: recombinant; tags: GST removed by TEV; label: 5' Alexa-647; single strand
T3 sequence: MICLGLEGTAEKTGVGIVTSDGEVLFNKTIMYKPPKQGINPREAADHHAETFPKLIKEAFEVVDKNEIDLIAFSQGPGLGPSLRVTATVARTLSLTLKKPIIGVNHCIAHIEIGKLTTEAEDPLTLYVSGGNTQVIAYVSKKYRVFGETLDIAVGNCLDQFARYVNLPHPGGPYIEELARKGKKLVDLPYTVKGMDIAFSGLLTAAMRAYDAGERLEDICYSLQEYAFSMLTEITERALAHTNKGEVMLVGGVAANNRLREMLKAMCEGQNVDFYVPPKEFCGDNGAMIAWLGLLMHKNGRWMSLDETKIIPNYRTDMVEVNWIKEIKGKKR

scQri7 = scQri7 (Saccharomyces cerevisiae, UniProt P43122 30-407); assay: as above; conditions: protein: recombinant; tags: His6 removed by TEV; label: 5' Alexa-647; single strand
TPRKB;PRPK = TPRKB;PRPK (Homo sapiens;Homo sapiens, UniProt Q9Y3C4;Q96S44 1-175;1-253, |); assay: as above; conditions: protein: recombinant;recombinant; tags: GST removed by TEV;GST-His6 removed by TEV; copies: 1;1; label: 5' Alexa-647; single strand
TPRKB = TPRKB (Homo sapiens, UniProt Q9Y3C4 1-175); assay: as above; conditions: protein: recombinant; tags: GST removed by TEV; label: 5' Alexa-647; single strand
mjCgi121 [1] = molecular target: T4, mjCgi121 (Methanocaldococcus jannaschii, UniProt Q57646 1-145); assay: as above; conditions: protein: recombinant; tags: GST removed by TEV; label: 5' Alexa-647; single strand
T4 sequence: T1 sequence 1

mjCgi121;mjBud32;mjKae1 = molecular target: T5, mjCgi121;mjBud32;mjKae1 (Methanocaldococcus …, UniProt Q57646;Q58530;Q58530 1-145;333-535;1-332, ||); assay: as above; conditions: protein: recombinant;recombinant;recombinant; tags: GST removed by TEV;His6 removed by TEV;GST removed by TEV; copies: 1;1;1; label: 5' Alexa-647; single strand
T5 sequence 1: T1 sequence 1
T5 sequence 2: T1 sequence 2
T5 sequence 3: T3 sequence

TPRKB;PRPK;OSGEP;LAGE3 = TPRKB;PRPK;OSGEP;LAGE3 (Homo sapiens;Homo sapiens;Homo …, UniProt Q9Y3C4;Q96S44;Q9NPF4;Q14657 1-175;1-253;1-335;1-143, |||); assay: as above; conditions: protein: recombinant;recombinant;recombinant;recombinant; tags: GST removed by TEV;GST-His6 removed by TEV;;His; copies: 1;1;1;1; label: 5' Alexa-647; single strand
mjCgi121 [2] = molecular target: T4, mjCgi121; assay: competition; displacement of 32P-tRNA, filter binding, 5 uM protein; 20 mM HEPES pH 7.5, 100 mM NaCl, 2 mM DTT; filter binding 50 nM 32P-tRNA, 1 h, room temperature; FP 50 nM 647-CCA; NMR 25 C with 10% D2O; conditions: protein: recombinant; tags: GST removed by TEV; single strand

scQri7, sequence (P43122 30-407): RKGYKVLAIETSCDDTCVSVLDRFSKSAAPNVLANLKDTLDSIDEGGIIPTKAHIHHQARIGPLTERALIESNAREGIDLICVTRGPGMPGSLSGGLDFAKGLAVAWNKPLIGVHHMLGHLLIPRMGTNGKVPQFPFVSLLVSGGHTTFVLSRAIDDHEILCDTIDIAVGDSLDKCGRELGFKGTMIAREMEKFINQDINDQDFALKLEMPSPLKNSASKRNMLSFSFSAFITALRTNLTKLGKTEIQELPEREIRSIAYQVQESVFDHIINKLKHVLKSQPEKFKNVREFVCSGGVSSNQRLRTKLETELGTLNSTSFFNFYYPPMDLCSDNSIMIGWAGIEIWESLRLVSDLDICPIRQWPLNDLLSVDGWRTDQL

Binder	Kd (mjCgi121;mjBud32) [nM]	binding result (mjBud32)	binding result (mjKae1)	binding result (scQri7)	Kd (TPRKB;PRPK) [nM]	Kd (TPRKB) [nM]	Kd (mjCgi121 [1]) [nM]	Kd (mjCgi121;mjBud32;mjKae1) [nM]	Kd (TPRKB;PRPK;OSGEP;LAGE3) [nM]	binding result (mjCgi121 [2])
CCGCCA (ssRNA) [647-CCA]	229	no binding	no binding	no binding	450	28000	730	153	4300	–
ACCGCCC (ssRNA) [inverted oligo]	–	–	–	–	–	–	–	–	–	no binding
CCCGCCA (ssRNA) [CCA-oligo]	–	–	–	–	–	–	–	–	–	binds
